For data set [1], the target named is T1, CbAgo (Clostridium butyricum, UniProt P0DYD1 1-748). The data set is described as follows: smFRET; three-state shuttling; 50 mM Tris-HCl pH 8.0, 100 mM NaCl (10-200 mM in salt series); temperature not given; TIRF smFRET, 100 ms. To be noted: protein: recombinant, tags: His6-MBP removed by TEV, label: Cy3 guide, Cy5 target, 3' biotin, three sites 11 nt apart.

Data set [2] concerns the target T1, CbAgo. Description: smFRET; 100 mM NaCl; mean dwell 37 s, koff 2.7e-2 s-1; 50 mM Tris-HCl pH 8.0, 100 mM NaCl (10-200 mM in salt series); temperature not given; TIRF smFRET, 100 ms. The following applies: protein: recombinant, tags: His6-MBP removed by TEV, label: Cy3 guide, Cy5 target, 3' biotin target, 3 nt match (guide nt 2-4).
Data set [3] deals with T1, CbAgo. The data set is described as follows: smFRET; stable beyond photobleaching time; 50 mM Tris-HCl pH 8.0, 100 mM NaCl (10-200 mM in salt series); temperature not given; TIRF smFRET, 100 ms. To be noted: protein: recombinant, tags: His6-MBP removed by TEV, label: Cy3 guide, Cy5 target, 3' biotin target.
Data set [4] has as its target T1, CbAgo. The data set is described as follows: smFRET; 15.1% shuttling; strongly bound; 50 mM Tris-HCl pH 8.0, 100 mM NaCl (10-200 mM in salt series); temperature not given; TIRF smFRET, 100 ms. To be noted: protein: recombinant, tags: His6-MBP removed by TEV, label: Cy3 guide, Cy5 target, 3' biotin, two sites, 6 nt match.
The target in data set [5] is T1, CbAgo. The data set is described as follows: smFRET; 100 mM NaCl; 87.8% shuttling, 13.5 events per binding; 50 mM Tris-HCl pH 8.0, 100 mM NaCl (10-200 mM in salt series); temperature not given; TIRF smFRET, 100 ms. To be noted: protein: recombinant, tags: His6-MBP removed by TEV, label: Cy3 guide, Cy5 target, 3' biotin, two sites.
In data set [6] the target is T1, CbAgo. The data set is described as follows: smFRET; shuttling time 0.4459 s at 200 mM NaCl; 50 mM Tris-HCl pH 8.0, 100 mM NaCl (10-200 mM in salt series); temperature not given; TIRF smFRET, 100 ms. To be noted: protein: recombinant, tags: His6-MBP removed by TEV, label: Cy3 guide, Cy5 target, 3' biotin, two sites.
The target of data set [7] is T1, CbAgo. Description: smFRET; shuttling time 0.5124 s at 200 mM NaCl; 50 mM Tris-HCl pH 8.0, 100 mM NaCl (10-200 mM in salt series); temperature not given; TIRF smFRET, 100 ms. To be noted: protein: recombinant, tags: His6-MBP removed by TEV, label: Cy3 guide, Cy5 target, 3' biotin dT, two sites.
For data set [8], the target named is T1, CbAgo. The data set is described as follows: smFRET; shuttling time 2.11 s (2.03-2.19); 50 mM Tris-HCl pH 8.0, 100 mM NaCl (10-200 mM in salt series); temperature not given; TIRF smFRET, 100 ms. The following applies: protein: recombinant, tags: His6-MBP removed by TEV, label: Cy3 guide, Cy5 target, 3' biotin dT, two sites.
In data set [9] the target is T1, CbAgo. Description: smFRET; 17 bp blockade, shuttling; 50 mM Tris-HCl pH 8.0, 100 mM NaCl (10-200 mM in salt series); temperature not given; TIRF smFRET, 100 ms. The following applies: protein: recombinant; tags: His6-MBP removed by TEV; label: Cy3 guide; 3' biotin dT target; strands 2:3 pair over 17 bp, ss flanks.
Data set [10] has as its target T1, CbAgo. Description: smFRET; 25 bp blockade; 50 mM Tris-HCl pH 8.0, 100 mM NaCl (10-200 mM in salt series); temperature not given; TIRF smFRET, 100 ms. To be noted: protein: recombinant; tags: His6-MBP removed by TEV; label: Cy3 guide; 3' biotin dT target; strands 2:3 pair over 25 bp, ss flanks.
Data set [11] has as its target T1, CbAgo. The data set is described as follows: smFRET; 21 bp blockade; 50 mM Tris-HCl pH 8.0, 100 mM NaCl (10-200 mM in salt series); temperature not given; TIRF smFRET, 100 ms. To be noted: protein: recombinant; tags: His6-MBP removed by TEV; label: Cy3 guide; 3' biotin dT target; strands 2:3 pair over 21 bp, ss flanks.
For data set [12], the target named is T1, CbAgo. Description: smFRET; shuttling rate 0.3188 s-1; 50 mM Tris-HCl pH 8.0, 100 mM NaCl (10-200 mM in salt series); temperature not given; TIRF smFRET, 100 ms. The following applies: protein: recombinant, tags: His6-MBP removed by TEV, label: Cy3 guide, Cy5 target, 3' biotin dT, two sites.
For data set [13], the target named is T1, CbAgo. Description: smFRET; Lin28b bound between targets; shuttling; 50 mM Tris-HCl pH 8.0, 100 mM NaCl (10-200 mM in salt series); temperature not given; TIRF smFRET, 100 ms. To be noted: protein: recombinant; tags: His6-MBP removed by TEV; label: Cy3 guide; Cy5 target; hairpin between two ss target sites.
The target in data set [14] is T1, CbAgo. Description: smFRET; shuttling time as tandem 11 nt; 50 mM Tris-HCl pH 8.0, 100 mM NaCl (10-200 mM in salt series); temperature not given; TIRF smFRET, 100 ms. To be noted: protein: recombinant; tags: His6-MBP removed by TEV; label: Cy3 guide; Cy5 target; 5' biotin strand; fork 2:3, 17 bp stem.

Numbering of substitutions follows the chain as printed.

B1: Guide 3nt / triple target (ssDNA)
DNA 1: CGAGTATTTTTTTTTTTTTTTT
DNA 2: TTTTTTTTTTTTACCTCTTTTTTACCTCTTTTTTACCTCTTTTTTTTTTTTTTTTTTTTTTTTTTTTTT
modifications: guide 5' phosphate; amino-C6-dT
In the case of B1, in data set [1], the binding result was “binds”.

B2: Guide 3nt (2-4) / single target (ssDNA)
DNA 1: CGAGTATTTTTTTTTTTTTTTT
DNA 2: TTTTTTTTTTTTTTTTTTTTTTTTTTTTTTTTTTTACTACCTCTTTTTTTTTTTTTTTTTTTTTTTTTTTTTT
modifications: guide 5' phosphate; amino-C6-dT at guide nt 9 and target nt 28
Turning to B2, the binding result in [2] is “binds”.

B3: Guide 8nt (2-9) / single target (ssDNA)
DNA 1: CGAGGTAGTTTTTTTTTTTTTT
DNA 2: B2 DNA 2
modifications: guide 5' phosphate; amino-C6-dT
For B3, the binding result in [3] (named 8 nt match (nt 2-9)) was “binds”.

B4: Guide 6nt / tandem 22 nt (ssDNA)
DNA 1: CGAGGTATTTTTTTTTTTTTTT
DNA 2: B2 DNA 2 with T14A, T15C, T17A, T18C, T19C, T21C
modifications: guide 5' phosphate; amino-C6-dT
With B4, in [4], the binding result is “binds”.

B5: Guide 7nt (2-8) / single target (ssDNA)
DNA 1: CGAGGTAGATTTTTTTTTTTTT
DNA 2: B2 DNA 2
modifications: guide 5' phosphate; amino-C6-dT
Consider B5, for which, in data set [3] (named 7 nt match (nt 2-8)), the binding result is “binds”.

B6: Guide 3nt / tandem 22 nt (ssDNA)
DNA 1: CGAGTATTTTTTTTTTTTTTTT
DNA 2: B2 DNA 2 with T14A, T15C, T17A, T18C, T19C, T21C
modifications: guide 5' phosphate; amino-C6-dT
With B6, the binding result in [5] is given as “binds”.

B7: Guide 3nt / tandem 15 nt (ssDNA)
DNA 1: CGAGTATTTTTTTTTTTTTTTT
DNA 2: TTTTTTTTTTTTTACTACCTCTTTTTTTACTACCTCTTTTTTTTTTTTTTTTTTTTTTTTTTTTTT
modifications: guide 5' phosphate; amino-C6-dT
As to B7, the binding result in data set [6] was “binds”.

B8: Guide 3nt / tandem 64 nt (ssDNA)
DNA 1: CGAGTATTTTTTTTTTTTTTTT
DNA 2: TTTTTTTTTTTTTTACTACCTCTTTTTTTTTTTTTTTTTTTTTTTTTTTTTTTTTTTTTTTTTTTTTTTTTTTTTTTTACTACCTCTTTTTTTTTTTTTTTTTTTTTTTTTTTTTTTT
modifications: guide 5' phosphate; amino-C6-dT; target 3' phosphate
Regarding B8, the binding result in [7] is recorded as “binds”.

B9: Guide 3nt / tandem 120 nt (ssDNA)
DNA 1: CGAGTATTTTTTTTTTTTTTTT
DNA 2: TTTTTTTTTTTTTTACTACCTCTTTTTTTTTTTTTTTTTTTTTTTTTTTTTTTTTTTTTTTTTTTTTTTTTTTTTTTTTTTTTTTTTTTTTTTTTTTTTTTTTTTTTTTTTTTTTTTTTTTTTTTTTTTTTTTTACTACCTCTTTTTTTTTTTTTTTTTTTTTTTTTTTTTTT
modifications: guide 5' phosphate; amino-C6-dT; target 3' phosphate
Take B9: in data set [8], the binding result is recorded as “binds”.

B10: Guide 3nt / 36 nt target with 17 nt block (mixed)
DNA 1: CGAGTATTTTTTTTTTTTTTTT
DNA 2: TTTTTTTTTTTTTTACTACCTCTCGGACCAACAGCGGGTACGGCTGTGCTACTACCTCTTTTTTTTTTTTTTTTTTTTTTTTTTTTTTTT
DNA 3: ACAGCCGTACCCGCTGT
modifications: guide 5' phosphate; labelled T in block
On to B10, for which, in data set [9], the binding result was “binds”.

B11: Guide 3nt / 36 nt target with 25 nt block (mixed)
DNA 1: CGAGTATTTTTTTTTTTTTTTT
DNA 2: B10 DNA 2
DNA 3: TAGCACAGCCGTACCCGCTGTTGGT
modifications: guide 5' phosphate; labelled T in block
In the case of B11, the binding result in [10] is recorded as “binds”.

B12: Guide 3nt / 36 nt target with 21 nt block (mixed)
DNA 1: CGAGTATTTTTTTTTTTTTTTT
DNA 2: B10 DNA 2
DNA 3: GCACAGCCGTACCCGCTGTTG
modifications: guide 5' phosphate; labelled T in block
Regarding B12, the binding result in data set [11] is recorded as “binds”.

B13: Guide 3nt / tandem 92 nt (ssDNA)
DNA 1: CGAGTATTTTTTTTTTTTTTTT
DNA 2: TTTTTTTTTTTTTTACTACCTCTTTTTTTTTTTTTTTTTTTTTTTTTTTTTTTTTTTTTTTTTTTTTTTTTTTTTTTTTTTTTTTTTTTTTTTTTTTTTTTTTTTTACTACCTCTTTTTTTTTTTTTTTTTTTTTTTTTTTTTTT
modifications: guide 5' phosphate; amino-C6-dT; target 3' phosphate
Consider B13, for which, in data set [12], the binding result was “binds”.

B14: Guide 3nt / Lin28 double target (mixed)
DNA 1: CGAGTATTTTTTTTTTTTTTTT
DNA 2: TTTTTTTTTTTTTTTTTTTACTACCTCTTTTTTTTTTTTTTTTTTTTGCGCTATGCGGTTGTATAGTTTTAGGGTCACACCCACCACTGGGAGATAACTATACAATCGCATAGCGCTTTTTTTTTTTTTTTTTTTTTTTTTTTTTTTTTACTACCTCTTTTTTTTTTTTTTTTT
modifications: guide 5' phosphate; amino-C6-dT
Consider B14, for which, in data set [13], the binding result was “binds”.

B15: Guide 3nt / 11 nt Y-fork (mixed)
DNA 1: CGAGTATTTTTTTTTTTTTTTT
DNA 2: TTTTTTTTTTTTTTTTTTTTTTTTCTCTTTGGCGACGGCAGCGAGGC
DNA 3: GCCTCGCTGCCGTCGCCATTTTTTCTCTTTTTTTTT
modifications: guide 5' phosphate; dye-labelled T in target
As for B15, the binding result in data set [14] is listed as “binds”.

The values above are taken from article PMC6763497, “Argonaute bypasses cellular obstacles without hindrance during target search”.
